Test results: the supplement of paper PMC9170038

Tested on: MS2 coat protein
Test: apparent KD of MS2 coat protein; designed switch direction (-1 OFF switch, 1 ON switch): -1; higher = weaker reporter binding
Method in brief: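 Designed RNA switches with common flanks were transcribed on Illumina chips by stalled E. coli RNA polymerase and titrated with SNAP-549-labelled MS2 coat protein, from 0.7 or 1.5 nM doubling to 3 µM, in Tris-HCl pH 7.5 buffer with KCl, MgCl2, BSA, DTT, tRNA and Tween-20. Steps lasted 0.8–1.5 h (lowest) to 10–20 min (highest). Titrations ran without input, with 200 uM small-molecule ligand, or with an oligonucleotide input. Normalised cluster fluorescence was curve-fitted, and apparent KD is the per-design median over clusters.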

[1] = input ligand: microRNA oligo, concentration not stated
[2] = Eterna round: R95, input ligand: microRNA oligo, concentration not stated
[3] = Eterna round: R95, input ligand: FMN 200 uM
[4] = Eterna round: R95, input ligand: none

## GUCAGGAAAGGAUAUACAAGUAGUCACUCUCUUUGCAGUUCACAUGAGGAUCACCCAUGUAGAAGGUUCGGACG [EX2 C.9] (Eterna round: R97, puzzle: Exclusion 2)
Input ligand: FMN 200 uM
  apparent KD of MS2 coat protein: 38.9 nM
Input ligand: none
  apparent KD of MS2 coat protein: 14.1 nM

## GUCAUGUAAGGAUAUCUUACAUGUGACUUCGGUCACUGUCAAGAGAAGGUACAUGAGGAUCACCCAUGUUCGAC [Ex4-3: 52] (Eterna round: R96, puzzle: Exclusion 4)
Input ligand: FMN 200 uM
  apparent KD of MS2 coat protein: 26.4 nM
[1]
  apparent KD of MS2 coat protein: 19.2 nM
Input ligand: none
  apparent KD of MS2 coat protein: 21 nM

## GUCAUGUAAGGAUAUCUUACAUGUGACUUCGGUCACUGUCAAGAGAAGGUACAUGAGGAUCACCCAUGUUCGAC [Ex4-3: 52] (puzzle: Exclusion 4)
[2]
  apparent KD of MS2 coat protein: 16.2 nM

## GUCAUGUUAGGAUAUCUGACAUGUGACUUCGGUCACUGUCCAGAGAAGGAACAUGAGGAUCACCCAUGUUGGAC [Ex4-3: 55] (puzzle: Exclusion 4)
[2]
  apparent KD of MS2 coat protein: 43.2 nM

## GUCAUGUUAGGAUAUCUGGCAUGUGACUUCGGUCACUGUCCAGAGAAGGAACAUGAGGAUCACCCAUGUUGGAC [Ex4-3: 54] (puzzle: Exclusion 4)
[2]
  apparent KD of MS2 coat protein: 48.2 nM

## GUCCCACAUGAGGAUCACCCAUGUGAGGAUAUGGUUUCGCUGGCCGUAGCCAGUGGAACCAGAAGGCGCGUGAU [Mat - Exclusion 1 - JL Mod - D17] (Eterna round: R97, puzzle: Exclusion 1)
Input ligand: FMN 200 uM
  apparent KD of MS2 coat protein: 75 nM
Input ligand: none
  apparent KD of MS2 coat protein: 74.7 nM

## GUCCGGCAUGUAGGAUAUGGAUCCGAUUAGGAUCCAGAAGGACAUGAGGAUCACCCAUGUACAUGUAAACAGUCAUCACCGGAC [Fiskers ExNg1 - 13] (Eterna round: R96, puzzle: Exclusion NG 1)
Input ligand: FMN 200 uM
  apparent KD of MS2 coat protein: 44.6 nM
[1]
  apparent KD of MS2 coat protein: 14.1 nM
Input ligand: none
  apparent KD of MS2 coat protein: 18.7 nM

## GUCCUCAUGACAUGAGGAUCACCCAUGUAUUAUUUGGUAACUGAGGAUAUACUUUUAAUGUUUAUGUAGAAGGCAGAUACGGUU [JR_ExcNG3_Sub018] (Eterna round: R96, puzzle: Exclusion NG 3)
Input ligand: FMN 200 uM
  apparent KD of MS2 coat protein: 197 nM
[1]
  apparent KD of MS2 coat protein: 53 nM
Input ligand: none
  apparent KD of MS2 coat protein: 62.3 nM

## GUCCUCAUGACAUGAGGAUCACCCAUGUAUUAUUUGUUAACUGAGGAUAUACUCUUAAUUUUUAUGUAGAAGGCAGAUUCGGUC [JR_ExcNG3_Sub020] (Eterna round: R96, puzzle: Exclusion NG 3)
[1]
  apparent KD of MS2 coat protein: 24.8 nM

## GUCCUGAGCGUUAGGAUAUUCACAGUGGACUACUGGAAGAAGGGACAUGAGGAUCACCCAUGUUCGAUACUGGG [Eternabot (L1) Solution 64] (Eterna round: R97, puzzle: Brourd's mod of Exclusion 4)
Input ligand: FMN 200 uM
  apparent KD of MS2 coat protein: 72.2 nM
Input ligand: none
  apparent KD of MS2 coat protein: 47.2 nM

## GUCGUGCGGCUUUGCUGUGCGGGUACAUGAGGAUCACCCAUGUAGGAUAUGGUGCGCUUUGCGUGCCAGAAGGGCGUGCGUUGG [salish99_ExNG3_r04_010] (Eterna round: R96, puzzle: Exclusion NG 3)
Input ligand: FMN 200 uM
  apparent KD of MS2 coat protein: 45.7 nM
[1]
  apparent KD of MS2 coat protein: 28 nM
Input ligand: none
  apparent KD of MS2 coat protein: 36.4 nM

## GUCUCAGCUGAGGAUAUAAACUCCCUUGAGGGUUUAGAAGGCAGUACAUGAGGAUCACCCAUGUGGUUCGUUUG [eternacac ex6r4 sub27] (Eterna round: R97, puzzle: Exclusion 6)
Input ligand: FMN 200 uM
  apparent KD of MS2 coat protein: 486 nM
Input ligand: none
  apparent KD of MS2 coat protein: 139 nM

## GUCUGGUUAGGAUAUACAGUGUCCACGAGUUAGUUGCCCUAACAUGAGGAUCACCCAUGUAGAAGGAGCGAGAA [Erisared] (Eterna round: R96, puzzle: Exclusion 2)
Input ligand: FMN 200 uM
  apparent KD of MS2 coat protein: 22.7 nM
[1]
  apparent KD of MS2 coat protein: 13.3 nM
Input ligand: none
  apparent KD of MS2 coat protein: 16.6 nM

## GUGAAACAUGAGGAUCACCCAUGUCAGGAUAUGAUACUAUGUACUUCGGUACAUAGUAUCAGAAGGGACAGUGA [Ex1-3: 3] (puzzle: Exclusion 1)
[2]
  apparent KD of MS2 coat protein: 74.4 nM

## GUGAAACAUGAGGAUCACCCAUGUCAGGAUAUGCAUCCAGUUCACCUAUAAAGACGGUGUAGAAGGGACAAUAA [Eternabot (Original) Solution 7] (Eterna round: R97, puzzle: Exclusion 1)
Input ligand: FMN 200 uM
  apparent KD of MS2 coat protein: 22.4 nM
Input ligand: none
  apparent KD of MS2 coat protein: 21.3 nM

## GUGAAGAAGUUAGUGGCCUACAUGAGGAUCACCCAUGUGAGGGAAAUGUCGAGGCGGAGGUUGUGUGCUCGUCUGUA [JR_SV3TOV1_Sub041] (puzzle: Sensor v3, turn-off variant 1)
[3]
  apparent KD of MS2 coat protein: 25.7 nM
[2]
  apparent KD of MS2 coat protein: 27.6 nM
[4]
  apparent KD of MS2 coat protein: 26.4 nM

## GUGAAGUGAGGAUAUACGAGAGAGGCUGAACCUGGAGAGAAGUAGAAGGCACAUGAGGAUCACCCAUGUAAGGA [JR_Exclu4_Sub020] (puzzle: Exclusion 4)
[3]
  apparent KD of MS2 coat protein: 36.7 nM
[2]
  apparent KD of MS2 coat protein: 36.1 nM
[4]
  apparent KD of MS2 coat protein: 34.4 nM

## GUGAGGUAAGGAUAUAGGAGAAAAGAUAAGGUAUGAGAGUUCUAGAAGGUACAUGAGGAUCACCCAUGUUAGGG [JR_Exclu4_Sub086] (puzzle: Exclusion 4)
[2]
  apparent KD of MS2 coat protein: 257 nM
